One test concerns the target T1, mRAGE (mouse, UniProt Q62151 24-342, limits assumed).
T1 construct: also called mouse RAGE
The test is described as follows: Biacore specificity assay: IgG immobilised (about 300 RU), antigen m-RAGE-fc injected at 500 nM. The procedure:
(§1) Biacore specificity analyses were performed using the T-200 biosensor, series S CM5 chips, an amine-coupling kit, 10 mM sodium acetate immobilization buffer at pH 5.0, 10× HBS-P running buffer and NaOH for regeneration (GE Healthcare). A predefined ligand (IgG) immobilization program was set up to immobilize approximately 300 Response Units (RU) on the flow cell for each IgG to be tested. For Anti-RAGE and anti-A33, a panel of fully-purified recombinant target and non-target antigens were diluted in HBS-P running buffer to a final concentration of 500 nM. Four groups of antigens were examined, including: cell membrane proteins (mTRKB, hTRKB, mEGFR, hEGFR, hFceR1, hIL-21R, mICAM1, mICAM2, hICAM1, hCD33, hLAMP-1, hLOX-1, and), soluble signaling molecules (mTNFa, hVEGF, hCXCL13) and albumins (BSA, HSA and MSA). These proteins were injected at 50 μl/min for 3 min, followed by a 5 sec pulse of 20 mM NaOH for regeneration of the chip surface. For pTau, a series of pTau-derived phosphorylated and non-phosphorylated peptides were flowed, as in Shih et al.³. All sensorgrams were analyzed using the Biacore T-200 evaluation software.
On the technique in general: SPR reads the build-up and loss of mass on a sensor chip optically.

Another test concerns the target T2, hLAMP-1 (human, UniProt P11279 29-382, limits assumed).
T2 construct: Non-target panel protein
T2 sequence (looked up): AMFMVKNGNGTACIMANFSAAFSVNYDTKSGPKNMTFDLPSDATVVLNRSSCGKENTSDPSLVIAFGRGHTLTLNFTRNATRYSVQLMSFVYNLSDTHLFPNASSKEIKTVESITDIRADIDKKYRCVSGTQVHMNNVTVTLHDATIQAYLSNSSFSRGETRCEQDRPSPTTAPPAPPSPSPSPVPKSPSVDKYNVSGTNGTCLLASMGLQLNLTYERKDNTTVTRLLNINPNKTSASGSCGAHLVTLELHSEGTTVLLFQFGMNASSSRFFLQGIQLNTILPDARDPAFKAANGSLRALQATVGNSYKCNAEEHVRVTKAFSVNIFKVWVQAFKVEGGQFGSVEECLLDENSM
In words: Biacore specificity assay: IgG immobilised (about 300 RU), antigen injected at 500 nM. As for the experimental part: as §1

The next test concerns the target T3, mTRKB (mouse, UniProt P15209 32-429, limits assumed).
T3 construct: Non-target panel protein
The description is as above. As for the experimental part:
as §1

For another test, the target named is hLOX-1 (human, UniProt P78380 61-273). Described as above. As for the experimental part: as §1
For the next test, the target named is T4, hFceR1 (human, UniProt P12319 26-205).
T4 construct: Non-target panel protein
T4 sequence (alpha): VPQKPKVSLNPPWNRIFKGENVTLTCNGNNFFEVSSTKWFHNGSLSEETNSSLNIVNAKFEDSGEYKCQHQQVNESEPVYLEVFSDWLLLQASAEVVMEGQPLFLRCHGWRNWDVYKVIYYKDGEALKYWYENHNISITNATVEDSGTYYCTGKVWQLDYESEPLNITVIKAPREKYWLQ
The description is as above. The procedure:
as §1

Another test concerns the target T5, mICAM2 (mouse, UniProt P35330 23-222, limits assumed).
T5 construct: Non-target panel protein
T5 sequence (looked up): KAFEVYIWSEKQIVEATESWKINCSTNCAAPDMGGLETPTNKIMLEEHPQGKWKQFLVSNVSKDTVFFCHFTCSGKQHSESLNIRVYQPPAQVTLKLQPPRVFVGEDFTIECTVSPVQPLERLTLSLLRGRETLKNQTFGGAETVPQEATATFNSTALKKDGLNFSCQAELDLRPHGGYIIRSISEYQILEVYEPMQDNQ
The test is described as above. The procedure:
as §1

Another test addresses T6, mEGFR (mouse, UniProt Q01279 25-647, limits assumed).
T6 construct: Non-target panel protein
The description is as above. As for the experimental part:
as §1

A further test addresses T7, mICAM1 (mouse, UniProt P13597 28-485, limits assumed).
T7 construct: Non-target panel protein
Described as above. As for the experimental part:
as §1

A further test concerns the target T8, hEGFR (human, UniProt P00533 25-645, limits assumed).
T8 construct: Non-target panel protein
The test is described as above. As for the experimental part:
as §1

The next test concerns the target T9, hCD33 (human, UniProt P20138 18-259, limits assumed).
T9 construct: Non-target panel protein
Described as above. The procedure: as §1

For the next test, the target named is T10, hIL-21R (human, UniProt Q9HBE5 20-232, limits assumed).
T10 construct: Non-target panel protein
The description is as above. As for the experimental part: as §1

Another test has as its target T11, hTRKB (human, UniProt Q16620 32-430, limits assumed).
T11 construct: Non-target panel protein
The description is as above. The procedure: as §1

In a further test the target is T12, hVEGF (human, UniProt P15692-4 27-191, limits assumed).
T12 construct: Non-target panel protein
The test is described as above. As for the experimental part:
as §1

Another test deals with T13, hCXCL13 (human, UniProt O43927 23-109).
T13 construct: Non-target panel protein
T13 sequence (looked up): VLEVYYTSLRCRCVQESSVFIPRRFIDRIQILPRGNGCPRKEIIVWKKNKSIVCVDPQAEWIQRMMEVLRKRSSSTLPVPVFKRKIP
The test is described as above. As for the experimental part: as §1

In the next test the target is T14, mTNFa (mouse, UniProt P06804 80-235).
T14 construct: Non-target panel protein
T14 sequence (looked up): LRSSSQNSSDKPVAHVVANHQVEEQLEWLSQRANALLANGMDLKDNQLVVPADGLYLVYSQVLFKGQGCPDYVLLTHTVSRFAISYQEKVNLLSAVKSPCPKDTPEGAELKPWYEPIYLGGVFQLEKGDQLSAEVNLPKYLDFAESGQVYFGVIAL
The description is as above. The procedure: as §1

The target in another test is T15, hICAM1 (human, UniProt P05362 28-480, limits assumed).
T15 construct: Non-target panel protein
The test is described as above. As for the experimental part:
as §1

The target in a further test is T16, hRAGE (human, UniProt Q15109 24-344, limits assumed).
T16 construct: also called human RAGE
In words: Biacore specificity assay: IgG immobilised (about 300 RU), antigen h-RAGE-fc injected at 500 nM. The procedure:
as §1

The target in test [1] is T17, Human A33 ectodomain protein (human, UniProt Q99795 22-235).
T17 construct: extracellular domain
T17 sequence (looked up): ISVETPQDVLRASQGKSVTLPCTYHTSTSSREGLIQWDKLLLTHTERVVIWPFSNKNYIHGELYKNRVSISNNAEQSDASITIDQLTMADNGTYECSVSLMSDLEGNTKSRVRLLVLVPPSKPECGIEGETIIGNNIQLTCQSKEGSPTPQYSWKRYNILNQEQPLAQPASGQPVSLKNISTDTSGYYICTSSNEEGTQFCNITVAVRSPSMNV
In words: HTRF epitope competition, IgG titrated; competitor parental IgG (Par-A33).

In test [2] the target is T17, Human A33 ectodomain protein. In words: Biacore T-200 SPR, IgG immobilised (~100 RU), purified target protein injected. The procedure: Biacore analysis was performed using the T-200 biosensor, series S CM5 chips, an amine-coupling kit, 10 mM sodium acetate immobilization buffer at pH 5.0, 10×HBS-P running buffer and NaOH for regeneration (GE Healthcare). Kinetic assay conditions were established to minimize the influence of mass transfer, avidity and rebinding events. A predefined ligand immobilization program was set up to immobilize approximately 100 Response Units (RU) of IgG on the chip. Purified target proteins were diluted in HBS-P running buffer to a range of final concentrations and injected at 50 μl/min for 3 mins. Dissociation was allowed to proceed for 10 min followed by a 5 sec pulse of 20 mM NaOH for regeneration of the chip surface. All sensorgrams were analyzed using the Biacore T-200 evaluation software.

T9 sequence (P20138 18-259 limits assumed): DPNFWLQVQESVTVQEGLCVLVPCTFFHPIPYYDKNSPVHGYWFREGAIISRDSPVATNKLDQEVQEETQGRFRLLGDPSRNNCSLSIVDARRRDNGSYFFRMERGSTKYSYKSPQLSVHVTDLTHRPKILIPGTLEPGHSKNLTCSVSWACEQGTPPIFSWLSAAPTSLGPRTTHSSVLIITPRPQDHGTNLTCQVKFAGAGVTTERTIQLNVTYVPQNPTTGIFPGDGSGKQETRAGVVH
T12 sequence (P15692 other isoform, or with tags, fused parts or gaps limits assumed): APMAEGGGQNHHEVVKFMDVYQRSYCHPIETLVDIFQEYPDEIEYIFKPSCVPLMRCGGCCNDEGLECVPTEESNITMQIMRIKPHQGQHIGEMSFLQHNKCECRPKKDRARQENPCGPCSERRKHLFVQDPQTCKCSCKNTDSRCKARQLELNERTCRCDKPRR
T3 sequence (P15209 32-429 limits assumed): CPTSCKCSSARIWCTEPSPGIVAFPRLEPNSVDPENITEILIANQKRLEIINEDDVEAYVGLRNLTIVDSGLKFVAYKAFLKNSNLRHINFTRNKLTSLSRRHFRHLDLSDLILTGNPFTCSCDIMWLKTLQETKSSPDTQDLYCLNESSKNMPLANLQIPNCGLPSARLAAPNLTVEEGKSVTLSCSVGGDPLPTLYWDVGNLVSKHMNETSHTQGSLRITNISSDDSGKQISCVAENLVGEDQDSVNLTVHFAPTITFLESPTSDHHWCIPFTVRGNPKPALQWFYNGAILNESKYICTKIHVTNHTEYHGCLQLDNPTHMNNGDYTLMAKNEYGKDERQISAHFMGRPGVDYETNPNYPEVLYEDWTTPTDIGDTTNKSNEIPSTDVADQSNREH
T15 sequence (P05362 28-480 limits assumed): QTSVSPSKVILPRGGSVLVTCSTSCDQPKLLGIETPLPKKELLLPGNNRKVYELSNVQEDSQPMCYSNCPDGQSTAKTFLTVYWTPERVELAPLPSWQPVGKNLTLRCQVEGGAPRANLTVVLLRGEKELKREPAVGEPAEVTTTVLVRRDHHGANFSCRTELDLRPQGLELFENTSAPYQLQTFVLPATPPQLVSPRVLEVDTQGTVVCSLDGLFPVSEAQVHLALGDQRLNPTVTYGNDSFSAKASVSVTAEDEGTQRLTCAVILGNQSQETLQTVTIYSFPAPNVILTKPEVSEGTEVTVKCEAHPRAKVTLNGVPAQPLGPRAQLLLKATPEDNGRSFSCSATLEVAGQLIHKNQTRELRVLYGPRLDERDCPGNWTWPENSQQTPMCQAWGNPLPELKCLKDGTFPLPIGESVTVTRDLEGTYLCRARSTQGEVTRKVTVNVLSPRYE
T10 sequence (Q9HBE5 20-232 limits assumed): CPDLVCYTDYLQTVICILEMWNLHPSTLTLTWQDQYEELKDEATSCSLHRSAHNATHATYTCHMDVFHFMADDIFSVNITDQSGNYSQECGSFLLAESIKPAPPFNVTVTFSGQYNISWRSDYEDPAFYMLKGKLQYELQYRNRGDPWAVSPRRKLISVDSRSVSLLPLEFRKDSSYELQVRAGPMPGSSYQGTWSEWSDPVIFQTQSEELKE
T11 sequence (Q16620 32-430 limits assumed): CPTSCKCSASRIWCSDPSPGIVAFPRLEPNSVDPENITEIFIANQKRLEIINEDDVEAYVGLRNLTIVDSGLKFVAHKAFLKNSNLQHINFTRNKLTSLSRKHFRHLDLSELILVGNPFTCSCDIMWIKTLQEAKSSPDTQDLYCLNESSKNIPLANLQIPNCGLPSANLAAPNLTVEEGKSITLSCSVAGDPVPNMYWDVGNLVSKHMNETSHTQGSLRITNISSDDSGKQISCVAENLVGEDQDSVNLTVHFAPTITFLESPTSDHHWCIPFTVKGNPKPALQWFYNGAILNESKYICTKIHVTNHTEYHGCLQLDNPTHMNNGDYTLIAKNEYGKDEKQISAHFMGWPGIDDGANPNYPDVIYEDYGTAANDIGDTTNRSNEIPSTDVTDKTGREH
T7 sequence (P13597 28-485 limits assumed): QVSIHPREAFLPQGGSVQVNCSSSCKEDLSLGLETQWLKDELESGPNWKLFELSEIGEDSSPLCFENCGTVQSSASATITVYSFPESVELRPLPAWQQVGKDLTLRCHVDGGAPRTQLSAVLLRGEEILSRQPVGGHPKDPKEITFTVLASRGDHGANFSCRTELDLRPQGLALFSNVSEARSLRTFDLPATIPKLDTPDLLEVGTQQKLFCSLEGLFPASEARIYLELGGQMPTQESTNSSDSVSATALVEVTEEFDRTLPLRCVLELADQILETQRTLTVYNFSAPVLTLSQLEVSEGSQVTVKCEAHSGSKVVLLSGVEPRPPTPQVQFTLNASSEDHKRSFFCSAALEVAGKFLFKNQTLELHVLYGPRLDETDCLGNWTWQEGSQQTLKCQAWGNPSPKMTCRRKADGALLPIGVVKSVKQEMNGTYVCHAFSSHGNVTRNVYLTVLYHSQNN
T16 sequence (Q15109 24-344 limits assumed): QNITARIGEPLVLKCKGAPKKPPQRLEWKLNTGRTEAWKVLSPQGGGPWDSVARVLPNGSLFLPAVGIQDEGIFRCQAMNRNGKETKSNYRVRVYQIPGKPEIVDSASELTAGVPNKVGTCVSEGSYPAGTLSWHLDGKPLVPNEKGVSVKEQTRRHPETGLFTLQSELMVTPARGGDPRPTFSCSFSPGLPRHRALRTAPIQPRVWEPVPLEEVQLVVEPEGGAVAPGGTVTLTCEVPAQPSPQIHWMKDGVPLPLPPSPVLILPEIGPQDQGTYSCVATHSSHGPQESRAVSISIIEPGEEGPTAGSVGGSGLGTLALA
T1 sequence (Q62151 24-342 limits assumed): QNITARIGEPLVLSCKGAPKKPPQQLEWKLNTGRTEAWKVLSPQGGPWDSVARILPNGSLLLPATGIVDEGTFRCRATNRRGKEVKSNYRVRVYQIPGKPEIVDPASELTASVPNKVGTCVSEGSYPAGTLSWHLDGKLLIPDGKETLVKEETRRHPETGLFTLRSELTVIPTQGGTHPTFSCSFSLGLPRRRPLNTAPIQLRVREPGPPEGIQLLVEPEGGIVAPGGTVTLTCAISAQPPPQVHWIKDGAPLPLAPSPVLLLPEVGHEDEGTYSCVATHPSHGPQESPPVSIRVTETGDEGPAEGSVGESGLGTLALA

B1: Par-RAGE IgG (rat anti-RAGE XT-M4 parental v-domains on the human IgG1 backbone) (antibody, V domains shown)
VH: EVQLVESGGGLVQPGRSLKLSCVVSGFTFNNYWMTWIRQTPGKGLEWVASIDNSGDNTYYPDSVKDRFTISRDNAKSTLYLQMNSLRSEDTATYYCTRGGDITTGFDYWGQGVMVTVSS
VL: DIQMTQSPSSMSVSLGDTITITCRASQDVGIYVNWFQQKPGKSPRRMIYRATNLADGVPSRFSGSRSGSIYSLTISSLESEDVADYHCLEFDEHPLTFGSGTKVEIK
notes: Human IgG1 backbone; also called XTM4 RAGE
For the molecule B1, the binding result with mRAGE is “binds”; in the test with hLAMP-1, “no binding (tested: 500 nM)”; with mTRKB, “no binding (tested: 500 nM)”; with hLOX-1, “no binding (tested: 500 nM)”; with hFceR1 it was “no binding (tested: 500 nM)”; with mICAM2 it was “no binding (tested: 500 nM)”. Also, the binding result in the test with mEGFR, in the test with mICAM1, with hEGFR, in the test with hCD33, in the test with hIL-21R and with hTRKB was “no binding (tested: 500 nM)” in each case. In addition, the binding result is recorded as “no binding (tested: 500 nM)” with hVEGF; “no binding (tested: 500 nM)” with hCXCL13; “no binding (tested: 500 nM)” with mTNFa; “no binding (tested: 500 nM)” with hICAM1; “binds” with hRAGE.

B2: Chim-A33 IgG (rabbit anti-A33 parental v-domains on the human IgG1 backbone) (antibody, V domains shown)
VH: QEQLMESGGGLVTLGGSLKLSCKASGIDFSHYGISWVRQAPGKGLEWIAYIYPNYGSVDYASWVNGRFTISLDNAQNTVFLQMISLTAADTATYFCARDRGYYSGSRGTRLDLWGQGTLVTISS
VL: ELVMTQTPPSLSASVGETVRIRCLASEFLFNGVSWYQQKPGKPPKFLISGASNLESGVPPRFSGSGSGTDYTLTIGGVQAEDVATYYCLGGYSGSSGLTFGAGTNVEIK
notes: also called Par-A33; A33 Rabbit
Regarding B2, the 50% inhibitory concentration (IC50) in test [1] was 2.9 nM. The Kd in test [2] was 2.1 nM. For the same molecule, the binding result with hLAMP-1, with mTRKB, in the test with hLOX-1, with hFceR1, with mICAM2 and in the test with mEGFR was “no binding (tested: 500 nM)” in each case. The binding result with mICAM1, with hEGFR, with hCD33, with hIL-21R, with hTRKB and with hVEGF was “no binding (tested: 500 nM)” throughout. Besides, the binding result with hCXCL13, in the test with mTNFa and in the test with hICAM1 was “no binding (tested: 500 nM)” each time.

A word on the IC50: it is the concentration that inhibits the measured activity by half. As usually defined, the Kd is the constant that tells how readily two partners part at equilibrium.

The record behind these values is patent US20170073395A1 (Pfizer, published 2017).
